{"source": "patent US20050283857A1", "key": {"[1]": {"target": "Cad11-12 truncated Bt-R1a cadherin expressed in S2 cells (Manduca sexta)", "assay": "125I-Cry1Ab saturation binding on S2 cell suspensions"}, "[2]": {"target": "Cad11-12 truncated Bt-R1a cadherin expressed in S2 cells (Manduca sexta)", "assay": "125I-Cry1Ab toxin binding saturation assay on S2 cells; concentration of receptors"}, "[3]": {"target": "Cad12 truncated Bt-R1a cadherin expressed in S2 cells (Manduca sexta)", "assay": "125I-Cry1Ab toxin binding saturation assay on S2 cells; concentration of receptors"}, "[4]": {"target": "Cad7-12 truncated Bt-R1a cadherin expressed in S2 cells (Manduca sexta)", "assay": "125I-Cry1Ab toxin binding saturation assay on S2 cells; concentration of receptors"}, "[5]": {"target": "Manduca sexta cadherin Bt-R1a, full length, expressed in Drosophila S2 cells (Manduca sexta)", "assay": "125I-Cry1Ab toxin binding saturation assay on S2 cells; concentration of receptors"}, "[6]": {"target": "Cad11-12 truncated Bt-R1a cadherin expressed in S2 cells (Manduca sexta)", "assay": "125I-Cry1Ab toxin binding saturation assay on S2 cells; dissociation constant (Kcom)"}, "[7]": {"target": "Cad12 truncated Bt-R1a cadherin expressed in S2 cells (Manduca sexta)", "assay": "125I-Cry1Ab toxin binding saturation assay on S2 cells; dissociation constant (Kcom)"}, "[8]": {"target": "Manduca sexta cadherin Bt-R1a, full length, expressed in Drosophila S2 cells (Manduca sexta)", "assay": "125I-Cry1Ab toxin binding saturation assay on S2 cells; dissociation constant (Kcom)"}}}
{"substance": "Cry1Ab toxin (ligand)", "values": [{"measurement": "fold higher concentration of binding sites than Cad12", "setting": "[1]", "result": 3, "unit": "fold"}, {"measurement": "Bmax (fmoles/mg protein)", "setting": "[2]", "result": 3320}, {"measurement": "Bmax (fmoles/mg protein)", "setting": "[3]", "result": 1410}, {"measurement": "Bmax (fmoles/mg protein)", "setting": "[4]", "result": 506}, {"measurement": "Bmax (fmoles/mg protein)", "setting": "[5]", "result": 625}, {"measurement": "Kd", "setting": "[6]", "result": 3.52, "unit": "nM"}, {"measurement": "Kd", "setting": "[7]", "result": 2.87, "unit": "nM"}, {"measurement": "Kd", "setting": "[8]", "result": 3.55, "unit": "nM"}]}
